Measured values as given in patent publication US20260083725A1, “SIGMARI LIGAND FOR THE TREATMENT OF PANCREATIC CANCER” (INSTITUT NATIONAL DE LA SANTÉ ET DE LA RECHERCHE MÉDICALE, priority 2022, published 2026).

Test system: SK2 channel
Test: Whole cell patch clamp recording of SK2 current in pancreatic cancer cells
Assay type: cell-based, human
Details: cells treated without CAF-CM; EGF 25 ng/mL overnight
Method: Electrophysiological recordings in HEK293-T, PANC-1 and MiaPaCa-2 cells were performed in the whole cell configuration of the patch clamp technique at room temperature. Cells were bathed in a solution containing: 5 mM KCl, 145 mM NaCl, 1 mM MgCl2, 2 mM CaCl2, and 10 mM Hepes (pH adjusted to 7.4 with HCl, 300 mosm/L). Soft glass patch electrodes (Brand, Wertheim, Germany) were made on a horizontal pipette puller (P-97, Sutter Instrument Co., Novato, CA) to achieve a final resistance ranging from 3 to 5 MΩ. The internal solution was: 145 mM KCl, 1 mM MgCl2, 0.87 mM CaCl2, 1 mM EGTA, 10 mM Hepes, 1 mM ATP (pH adjusted to 7.2 with KOH, 308 mosm/L, pCa 6). Recordings were performed at room temperature in the voltage clamp mode using an PC-controlled EPC 9 patch-clamp amplifier (HEKA, Lambrecht/Pfalz, Germany). Currents were acquired and analyzed with Pulse and Pulsefit software (HEKA). Signal were filtered at 10 kHz and digitalized at 20 kHz. Currents were elicited by voltage ramps protocols (from −120 to +60 mV). Current density was measured at 0 mV. For the electrophysiological study of the SK2 mutations, HEK293-T were transfected with the different constructions and the HA-myr-AKT using calcium phosphate and recorded 24 h after transfection.

B1: EGF: EGFR ligand; growth factor applied to cells at 25 ng/mL (protein, UniProt P01133 23-1207, looked up)
Pro-epidermal growth factor: PQHWSCPEGTLAGNGNSTCVGPAPFLIFSHGNSIFRIDTEGTNYEQLVVDAGVSVIMDFHYNEKRIYWVDLERQLLQRVFLNGSRQERVCNIEKNVSGMAINWINEEVIWSNQQEGIITVTDMKGNNSHILLSALKYPANVAVDPVERFIFWSSEVAGSLYRADLDGVGVKALLETSEKITAVSLDVLDKRLFWIQYNREGSNSLICSCDYDGGSVHISKHPTQHNLFAMSLFGDRIFYSTWKMKTIWIANKHTGKDMVRINLHSSFVPLGELKVVHPLAQPKAEDDTWEPEQKLCKLRKGNCSSTVCGQDLQSHLCMCAEGYALSRDRKYCEDVNECAFWNHGCTLGCKNTPGSYYCTCPVGFVLLPDGKRCHQLVSCPRNVSECSHDCVLTSEGPLCFCPEGSVLERDGKTCSGCSSPDNGGCSQLCVPLSPVSWECDCFPGYDLQLDEKSCAASGPQPFLLFANSQDIRHMHFDGTDYGTLLSQQMGMVYALDHDPVENKIYFAHTALKWIERANMDGSQRERLIEEGVDVPEGLAVDWIGRRFYWTDRGKSLIGRSDLNGKRSKIITKENISQPRGIAVHPMAKRLFWTDTGINPRIESSSLQGLGRLVIASSDLIWPSGITIDFLTDKLYWCDAKQSVIEMANLDGSKRRRLTQNDVGHPFAVAVFEDYVWFSDWAMPSVMRVNKRTGKDRVRLQGSMLKPSSLVVVHPLAKPGADPCLYQNGGCEHICKKRLGTAWCSCREGFMKASDGKTCLALDGHQLLAGGEVDLKNQVTPLDILSKTRVSEDNITESQHMLVAEIMVSDQDDCAPVGCSMYARCISEGEDATCQCLKGFAGDGKLCSDIDECEMGVPVCPPASSKCINTEGGYVCRCSEGYQGDGIHCLDIDECQLGEHSCGENASCTNTEGGYTCMCAGRLSEPGLICPDSTPPPHLREDDHHYSVRNSDSECPLSHDGYCLHDGVCMYIEALDKYACNCVVGYIGERCQYRDLKWWELRHAGHGQQQKVIVVAVCVVVLVMLLLLSLWGAHYYRTQKLLSKNPKNPYEESSRDVRSRRPADTEDGMSSCPQPWFVVIKEHQDLKNGGQPVAGEDGQAADGSMQPTSWRQEPQLCGMGTEQGCWIPVSSDKGSCPQVMERSFHMPSYGTQTLEGGVEKPHSLLSANPLWQQRALDPPHQMELTQ
modifications: Pro-epidermal growth factor
notes: EGFR ligand; growth factor applied to cells at 25 ng/mL
- SK2 current: significant increase
